Source: patent US20240261403A1 (published 2024)
One block for each binder: values may come before it.

Target: T1, EGFR L858R peptide on HLA-A*33:03 (human)
T1 peptide: HVKITDFGR
Assay: multimer staining

binding result: recognises
B1: TCR (ii) with CDR3 alpha SEQ ID NO: 2 and CDR3 beta SEQ ID NO: 14 (Table 2, rank 2) (TCR, V domains shown)
Valpha: KQEVTQIPAALSVPEGENLVLNCSFTDSAIYNLQWFRQDPGKGLTSLLLIQSSQREQTSGRLNASLDKSSGRSTLYIAASQPGDSATYLCAATGTYKYIFGRGTSLIVHP
Vbeta: NAGVTQTPKFQVLKTGQSMTLQCAQDMNHEYMSWYRQDPGMGLRLIHYSVGAGITDQGEVPNGYNVSRSTTEDFPLRLLSAAPSQTSVYFCASSPEFARALDNQPQHFGPGTRLTVL

binding result: recognises
B2: TCR (i) with CDR3 alpha SEQ ID NO: 1 and CDR3 beta SEQ ID NO: 13 (Table 2, rank 1) (TCR, V domains shown)
Valpha: KQEVTQIPAALSVPEGENLVLNCSFTDSAIYNLQWFRQDPGKGLTSLLLIQSSQREQTSGRLNASLDKSSGRSTLYIAASQPGDSATYLCAFIGHGGSQGNLIFGRGTSLIVHP
Vbeta: NAGVTQTPKFQVLKTGQSMTLQCAQDMNHEYMSWYRQDPGMGLRLIHYSVGAGITDQGEVPNGYNVSRSTTEDFPLRLLSAAPSQTSVYFCASSMQGAMSEQFFGPGTRLTVL
